Assay results reported in article PMC7450098, “The maturase HydF enables [FeFe] hydrogenase assembly via transient, cofactor-dependent interactions” (The Journal of Biological Chemistry, 2020).
Values joined by “and” are separate entries in the source; they are usually repeats but may differ in a detail not shown here. Equal values may be shown once.

Tests used:
[1] = target: T1, HydF (TmHydF) (Thermotoga maritima, UniProt Q9WYS6); assay: in vitro reconstitution; spectroscopy; GEMMA; assay type: binding; conditions: anaerobic reconstitution of apo-protein
T1 construct: gene TM_0445; full length, expressed in E. coli Rosetta (II), heat step and phenyl-Sepharose; about 45 kDa; mainly dimer, some tetramer; apo-form reconstituted with [4Fe-4S]
T1 sequence (Q9WYS6 1-404): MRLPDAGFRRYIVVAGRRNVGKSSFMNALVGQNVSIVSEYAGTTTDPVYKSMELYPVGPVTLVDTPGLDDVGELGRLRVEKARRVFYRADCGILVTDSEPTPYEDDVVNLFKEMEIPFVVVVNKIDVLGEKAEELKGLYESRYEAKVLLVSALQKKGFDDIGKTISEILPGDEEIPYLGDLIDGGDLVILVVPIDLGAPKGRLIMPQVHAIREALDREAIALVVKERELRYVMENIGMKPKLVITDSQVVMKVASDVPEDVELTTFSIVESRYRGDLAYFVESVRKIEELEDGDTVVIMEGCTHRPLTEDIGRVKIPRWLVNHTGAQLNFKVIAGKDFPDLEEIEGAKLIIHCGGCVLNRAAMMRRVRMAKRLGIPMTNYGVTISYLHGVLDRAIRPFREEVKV

[2] = target: T2, HydA1 (CrHydA1) (Chlamydomonas reinhardtii, UniProt Q9FYU1); assay: in vitro reconstitution; spectroscopy; GEMMA; assay type: binding; conditions: anaerobic reconstitution of apo-protein
T2 construct: gene hyd1; His-tagged, purified recombinant; theoretical mass 49 kDa; monomer; apo-form reconstituted to [4Fe-4S]-HydA1
T2 sequence (Q9FYU1 56-497): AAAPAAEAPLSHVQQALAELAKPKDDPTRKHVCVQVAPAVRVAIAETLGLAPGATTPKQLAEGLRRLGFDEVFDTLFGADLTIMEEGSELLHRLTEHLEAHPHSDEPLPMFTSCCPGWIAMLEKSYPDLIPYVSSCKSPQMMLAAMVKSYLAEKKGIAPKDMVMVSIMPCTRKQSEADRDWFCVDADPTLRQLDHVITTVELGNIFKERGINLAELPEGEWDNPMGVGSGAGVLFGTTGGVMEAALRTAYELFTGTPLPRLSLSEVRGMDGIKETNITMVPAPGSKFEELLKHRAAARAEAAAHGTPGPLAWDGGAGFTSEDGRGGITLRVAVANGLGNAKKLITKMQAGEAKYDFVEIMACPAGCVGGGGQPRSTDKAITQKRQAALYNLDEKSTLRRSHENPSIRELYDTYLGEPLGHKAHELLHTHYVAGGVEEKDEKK

[3] = target: HydF from Thermotoga maritima (Thermotoga maritima); assay: GEMMA (gas-phase electrophoretic macromolecule analysis); isolated HydF or HydA1, each as apo, [4Fe4S] and holo form; 0.02 µg/µl protein in 20 mM ammonium acetate, 0.005% Tween-20
[4] = target: HydF from Thermotoga maritima (Thermotoga maritima); assay: GEMMA (gas-phase electrophoretic macromolecule analysis); mixtures of metal-free apo-HydF with HydA1 (apo, [4Fe4S] or holo); 0.02 µg/µl each protein in 20 mM ammonium acetate, 0.005% Tween-20
[5] = target: HydA1 [FeFe] hydrogenase from Chlamydomonas reinhardtii (Chlamydomonas reinhardtii); assay: GEMMA (gas-phase electrophoretic macromolecule analysis); mixtures of metal-loaded HydF ([4Fe-4S]-HydF or holo-HydF) with HydA1 (apo, [4Fe4S] or holo); 0.02 µg/µl each protein in 20 mM ammonium acetate, 0.005% Tween-20
[6] = target: HydF from Thermotoga maritima (Thermotoga maritima); assay: as above
[7] = target: HydF from Thermotoga maritima (Thermotoga maritima); assay: SEC + other: GEMMA (gas-phase electrophoretic macromolecule analysis); fraction P1 (63 ml) of apo-HydF from Superdex-200 (50 mM Tris-HCl pH 8.0, 150 mM NaCl), then wide-scan GEMMA at 0.02 µg/µl protein in 20 mM ammonium acetate, 0.005% Tween 20; 1 mM DTT added to samples
[8] = target: HydF from Thermotoga maritima (Thermotoga maritima); assay: SEC + other: GEMMA (gas-phase electrophoretic macromolecule analysis); fractions P2 of apo-HydF (70 ml) and apo-HydA1 (75 ml) from Superdex-200 (50 mM Tris-HCl pH 8.0, 150 mM NaCl), then wide-scan GEMMA at 0.02 µg/µl protein in 20 mM ammonium acetate, 0.005% Tween 20; 1 mM DTT added to samples

stoichiometry N [3]	stoichiometry N [4]	stoichiometry N (HydF per HydA1) [5]	stoichiometry N [6]	stoichiometry N [7]	stoichiometry N [8]	Compound	in vitro reconstitution; spectroscopy; GEMMA [1]	in vitro reconstitution; spectroscopy; GEMMA [2]
–	–	–	–	–	–	[S]12[Fe]3[S]4[Fe]1[S]1[Fe]2[S]3[Fe]41 [[4Fe-4S] cluster]	The [4Fe4S] clusters in apo-HydA1, apo-HydF, and the truncated HydF apo-proteins were reconstituted	The [4Fe4S] clusters in apo-HydA1, apo-HydF, and the truncated HydF apo-proteins were reconstituted
2 and 4 and > 6	2 and 4	2	2 and 4	4 and 2 and 6	2	HydF from Thermotoga maritima (natural protein)	–	–
